From patent US20220125891A1 (OSAKA UNIVERSITY, published 2022)
Positions of bridges follow the written chain, without caps; N, C: chain ends. Non-standard residues stand in square brackets, D forms with d. No end group written: not given here. NMeA = CN[C@@H](C)C(=O)O; dNMeA = CN[C@H](C)C(=O)O

Tests used:
[1] = target: T1, full-length human Regnase-1 with a FLAG tag on the N-terminal side and a biotin ligase BirA recognition … (human, UniProt Q5D1E8 1-599, biotinylated where required ; Biotinylated at the BirA recognition sequence where required. That sequence is not in the letters.); assay: cell-based or functional assay
T1 sequence: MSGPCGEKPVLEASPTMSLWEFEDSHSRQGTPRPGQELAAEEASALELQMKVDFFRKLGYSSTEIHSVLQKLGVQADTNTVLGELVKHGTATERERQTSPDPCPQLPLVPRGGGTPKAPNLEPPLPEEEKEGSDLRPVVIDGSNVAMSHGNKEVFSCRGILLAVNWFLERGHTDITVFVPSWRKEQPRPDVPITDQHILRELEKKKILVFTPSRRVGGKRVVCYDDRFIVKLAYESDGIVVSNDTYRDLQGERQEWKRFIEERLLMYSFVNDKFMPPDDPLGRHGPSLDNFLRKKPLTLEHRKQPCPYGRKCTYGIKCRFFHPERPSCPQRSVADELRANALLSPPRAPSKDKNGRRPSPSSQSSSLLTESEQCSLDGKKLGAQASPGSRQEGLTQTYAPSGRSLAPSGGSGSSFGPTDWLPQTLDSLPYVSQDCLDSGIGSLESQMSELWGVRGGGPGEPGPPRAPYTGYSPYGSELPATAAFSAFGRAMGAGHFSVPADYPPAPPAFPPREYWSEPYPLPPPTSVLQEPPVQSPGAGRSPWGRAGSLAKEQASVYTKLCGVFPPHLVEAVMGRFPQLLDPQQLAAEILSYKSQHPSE

[2] = target: T2, ΔCTD_Reg1 (human Regnase-1 amino acids 1 to 546, FLAG tag on the N-terminal side, BirA recognition sequence … (human)); assay: cell-based or functional assay
[3] = target: T3, Reg1_301-599 (human Regnase-1 amino acids 301 to 599, FLAG tag on the N-terminal side, BirA recognition … (human)); assay: cell-based or functional assay
T3 sequence (Q5D1E8 301-599, looked up): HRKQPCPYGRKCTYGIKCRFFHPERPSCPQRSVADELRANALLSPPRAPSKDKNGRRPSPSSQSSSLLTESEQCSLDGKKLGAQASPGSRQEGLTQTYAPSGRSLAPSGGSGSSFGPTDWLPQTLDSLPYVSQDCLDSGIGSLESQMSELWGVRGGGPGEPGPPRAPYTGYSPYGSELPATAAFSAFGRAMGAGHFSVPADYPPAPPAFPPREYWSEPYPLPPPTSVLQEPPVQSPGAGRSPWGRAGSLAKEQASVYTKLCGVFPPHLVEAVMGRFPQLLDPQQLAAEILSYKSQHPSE

[4] = target: T1, full-length human Regnase-1 with a FLAG …; assay: cell-based or functional assay; remark: listed apart in the source
[5] = target: T2, ΔCTD_Reg1 (human Regnase-1 amino acids …); assay: cell-based or functional assay; remark: listed apart in the source
[6] = target: T3, Reg1_301-599 (human Regnase-1 amino …); assay: cell-based or functional assay; remark: listed apart in the source
[7] = target: T1, full-length human Regnase-1 with a FLAG …; assay: AlphaScreen, blocks TBK1 binding to FL_Reg1
[8] = target: T1, full-length human Regnase-1 with a FLAG …; assay: AlphaScreen, blocks IKKβ binding to FL_Reg1
[9] = target: T1, full-length human Regnase-1 with a FLAG …; assay: affinity selection-MS (SEC, LC/MS), 1 µM each

Binder	IC50, phosphorylation by TBK1 [1] [µM]	IC50, phosphorylation by TBK1 [2] [µM]	IC50, phosphorylation by TBK1 [3] [µM]	IC50, phosphorylation by IKKβ [4] [µM]	IC50, phosphorylation by IKKβ [5] [µM]	IC50, phosphorylation by IKKβ [6] [µM]	IC50 [7] [µM]	IC50 [8] [µM]	AS-MS ratio(%) [9] [%]
[NMeA]RFRQWKWVYPD (lactam N-12) [PP13]	8.4	17.7	18	3.6	43.2	23.2	13.8	16.9	0.1
[NMeA]NYQSWYYRSIWD (lactam N-13) [PP10]	0.2	0.2	0.4	0.5	2.6	1.8	9.8	11.4	3.7
[dNMeA]TYGHSSWYKIWD (lactam N-13) [PP9]	4.2	6.6	7.9	2.7	6.4	6.2	8.3	10.6	14.8
[NMeA]WIWDFWNED (lactam N-10) [PP24]	35.7	27.3	34.8	5.3	4	7.2	7.7	8.8	51.1
[NMeA]NFSNSWYNIWD (lactam N-12) [PP16]	52.4	38.1	> 62.1	20.6	30.8	42.2	20.2	> 62.1	17.9
[NMeA]NFNSAYYRAIWD (lactam N-13) [PP7]	2.2	4.7	4.6	0.8	4.5	3	17.9	15.1	15.8

Next, values leading:

IC50, phosphorylation by TBK1 [1] [µM]	IC50, phosphorylation by TBK1 [2] [µM]	IC50, phosphorylation by TBK1 [3] [µM]	IC50, phosphorylation by IKKβ [4] [µM]	IC50, phosphorylation by IKKβ [5] [µM]	IC50, phosphorylation by IKKβ [6] [µM]	IC50 [7] [µM]	IC50 [8] [µM]	AS-MS ratio(%) [9] [%]	Binder
29.1	55.6	> 62.1	22.3	> 62.1	> 62.1	60.9	> 62.1	5.1	[NMeA]KFAQFRWIYPD (lactam N-12) [PP11]
2.9	5.5	6	1.4	7.8	5.7	6.5	7.4	6.2	[dNMeA]SKYWNSWYNIWD (lactam N-13) [PP8]
< 0.06	0.3	< 0.06	0.5	0.3	0.7	< 0.06	< 0.06	67.8	[NMeA]DIWFDYWDWD (lactam N-11) [PP17]
18.9	16.1	16.3	27	47.7	27.6	13.1	> 62.1	6.9	[dNMeA]EDTPEDDHD (lactam N-10) [PP25]
3.1	5.2	6.8	1.6	9	6.5	7.1	20.1	4.2	[NMeA]RFGVWSWIYPD (lactam N-12) [PP14]
12.7	22.5	19.6	6.8	27	20.7	> 62.1	> 62.1	21	[NMeA]RYAVYQWIYPD (lactam N-12) [PP12]
8.5	9.5	17.4	5.6	31	22	13.7	33.7	66.7	[NMeA]NSWYINIWGHD (lactam N-12) [PP15]
